For the data set the following is noted: Escherichia coli (strain K12); pH 7.8; 25 °C; Urea; CD; Potassium phosphate 10 mM; transition: 3; reversible: yes (>90%); whole UniProt chain shown.

“And” between values parts separate entries of the source, which are not always exact repeats. Equal values may be shown once.

B1: Tryptophan synthase alpha chain wild type, P0A877 (protein)
chain: MERYESLFAQLKERKEGAFVPFVTLGDPGIEQSLKIIDTLIEAGADALELGIPFSDPLADGPTIQNATLRAFAAGVTPAQCFEMLALIRQKHPTIPIGLLMYANLVFNKGIDEFYAQCEKVGVDSVLVADVPVEESAPFRQAALRHNVAPIFICPPNADDDLLRQIASYGRGYTYLLSRAGVTGAENRAALPLNHLVAKLKEYNAAPPLQGFGISAPDQVKAAIDAGAAGAISGSAIVKIIEQHINEPEKMLAALKVFVQPMKAATRS
B1: the denaturant m value was 2.2 kcal/mol/M and 1.2 kcal/mol/M; the “denaturant midpoint (higher = more stable)” value was 2.62 M and 4.18 M; the unfolding free energy is 5.7 kcal/mol and 5 kcal/mol.

Source of the values: FireProtDB (doi:10.1021/bi00358a035).
